In the experiment the target is mCherry^N-gp418^N chimeric protein.

As to gp418^C-mCherry^C chimeric protein, the concurrent in situ splicing in a four-strain E. coli co-culture: mCherry fluorescence (580 nm excitation-610 nm emission) of the purified protein mixture stood at 35000 a.u.

Values taken from article PMC12062136.
